Measurements taken from paper PMC12525004, “Bacillus subtilis DinG 3′⟶5′ Exo(ribo)nuclease: A Helpmate to Mitigate Replication Stress” (International Journal of Molecular Sciences, 2025).

B1: RecA (natural protein, B. subtilis, UniProt P16971 1-348, looked up)
chain: MSDRQAALDMALKQIEKQFGKGSIMKLGEKTDTRISTVPSGSLALDTALGIGGYPRGRIIEVYGPESSGKTTVALHAIAEVQQQGGQAAFIDAEHALDPVYAQKLGVNIEELLLSQPDTGEQALEIAEALVRSGAVDIVVVDSVAALVPKAEIEGDMGDSHVGLQARLMSQALRKLSGAINKSKTIAIFINQIREKVGVMFGNPETTPGGRALKFYSSVRLEVRRAEQLKQGNDVMGNKTKIKVVKNKVAPPFRTAEVDIMYGEGISKEGEIIDLGTELDIVQKSGSWYSYEEERLGQGRENAKQFLKENKDIMLMIQEQIREHYGLDNNGVVQQQAEETQEELEFEE
notes: RecA recombinase, Bacillus subtilis; overproduced from plasmid pBT61 in B. subtilis BG214; also called recombinase RecA

Experiments:
DinG D10A E12A = target: T1, DinG D10A E12A (B. subtilis, UniProt P54394 1-931, D10A | E12A); assay: far-Western, overlay or dot blot; immuno-dot blot: proteins (75-300 ng) spotted on nitrocellulose, blocked with 5% skimmed milk in PBS, incubated 6 h at 4 °C with 200 ng/ml RecA in PBS, 0.5% skimmed milk powder, 0.1% Triton X-100; washed; retained RecA detected with polyclonal anti-RecA antibody; conditions: both partners purified
T1 construct: DinG, Bacillus subtilis, 931 aa, with codons 10 (Asp) and 12 (Glu) replaced by Ala; cloned into pET3a (pCB1259); also called exonuclease-deficient DinG; ExoI-deficient DinG variant; source: E. coli BL21(DE3) [pLysS] carrying pCB1259, purified by the same protocol as wt DinG
T1 sequence (looked up): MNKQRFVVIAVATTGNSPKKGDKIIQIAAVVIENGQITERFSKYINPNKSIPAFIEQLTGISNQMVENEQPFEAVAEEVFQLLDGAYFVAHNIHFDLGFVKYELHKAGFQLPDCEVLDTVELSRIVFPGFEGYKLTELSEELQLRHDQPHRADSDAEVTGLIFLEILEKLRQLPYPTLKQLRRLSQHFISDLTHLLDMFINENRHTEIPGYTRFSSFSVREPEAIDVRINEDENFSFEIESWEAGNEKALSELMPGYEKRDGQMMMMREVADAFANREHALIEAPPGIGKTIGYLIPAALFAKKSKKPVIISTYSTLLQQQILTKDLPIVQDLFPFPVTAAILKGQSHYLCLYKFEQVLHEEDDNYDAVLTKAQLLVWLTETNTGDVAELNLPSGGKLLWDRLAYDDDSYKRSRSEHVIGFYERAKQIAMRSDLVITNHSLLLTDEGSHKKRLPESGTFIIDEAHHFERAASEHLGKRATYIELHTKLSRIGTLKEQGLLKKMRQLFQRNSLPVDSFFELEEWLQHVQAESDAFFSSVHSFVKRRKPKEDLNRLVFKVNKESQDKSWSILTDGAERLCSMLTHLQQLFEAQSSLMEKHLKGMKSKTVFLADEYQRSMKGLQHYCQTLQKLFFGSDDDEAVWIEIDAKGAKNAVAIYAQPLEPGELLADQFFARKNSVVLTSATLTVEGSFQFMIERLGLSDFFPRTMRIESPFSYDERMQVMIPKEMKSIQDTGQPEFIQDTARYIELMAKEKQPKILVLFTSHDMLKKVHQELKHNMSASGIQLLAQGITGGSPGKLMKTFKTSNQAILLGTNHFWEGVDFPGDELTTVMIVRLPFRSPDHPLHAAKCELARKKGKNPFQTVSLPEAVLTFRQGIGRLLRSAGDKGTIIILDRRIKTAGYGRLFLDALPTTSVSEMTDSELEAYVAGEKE

DinG K290A = target: T2, DinG K290A (B. subtilis, UniProt P54394 1-931, K290A); assay: as above; conditions: both partners purified
T2 construct: DinG, Bacillus subtilis, 931 aa, with codon 290 (Lys, Walker A box) replaced by Ala; cloned into pET3a (pCB1260); also called ATPase-deficient DinG; source: E. coli BL21(DE3) [pLysS] carrying pCB1260, purified by the same protocol as wt DinG
T2 sequence (looked up): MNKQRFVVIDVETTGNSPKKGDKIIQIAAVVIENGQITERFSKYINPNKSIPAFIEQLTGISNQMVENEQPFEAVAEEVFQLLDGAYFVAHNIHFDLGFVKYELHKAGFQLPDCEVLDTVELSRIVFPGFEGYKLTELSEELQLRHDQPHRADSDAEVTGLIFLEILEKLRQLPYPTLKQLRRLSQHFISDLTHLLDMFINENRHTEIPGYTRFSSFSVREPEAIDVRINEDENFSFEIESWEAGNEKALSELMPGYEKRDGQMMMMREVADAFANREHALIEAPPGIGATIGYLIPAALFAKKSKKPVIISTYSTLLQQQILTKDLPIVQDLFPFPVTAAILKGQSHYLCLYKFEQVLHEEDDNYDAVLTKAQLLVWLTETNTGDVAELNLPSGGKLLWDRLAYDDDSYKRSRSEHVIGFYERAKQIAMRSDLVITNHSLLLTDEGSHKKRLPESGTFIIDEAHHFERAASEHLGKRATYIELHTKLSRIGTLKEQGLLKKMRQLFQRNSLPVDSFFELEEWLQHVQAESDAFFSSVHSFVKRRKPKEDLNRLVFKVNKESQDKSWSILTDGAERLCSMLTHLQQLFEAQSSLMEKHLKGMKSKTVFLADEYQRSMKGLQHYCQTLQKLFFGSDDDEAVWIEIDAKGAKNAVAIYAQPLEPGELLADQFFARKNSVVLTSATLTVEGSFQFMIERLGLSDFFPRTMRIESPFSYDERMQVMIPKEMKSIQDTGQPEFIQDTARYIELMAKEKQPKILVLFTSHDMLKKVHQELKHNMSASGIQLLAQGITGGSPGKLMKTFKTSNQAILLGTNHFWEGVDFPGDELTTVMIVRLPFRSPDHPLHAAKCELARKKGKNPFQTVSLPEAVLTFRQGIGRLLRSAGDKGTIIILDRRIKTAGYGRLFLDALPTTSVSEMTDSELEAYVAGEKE

DinG [1] = target: T3, DinG (Bacillus subtilis, UniProt P54394 1-931); assay: EMSA; 3 mM Mg2+; substrate degraded during assay; Kapp; EMSA, buffer D (composition not in material; 3 mM MgCl2, or 2 mM EDTA instead), 0.5 nM DNA, 37 °C, 10 min (text: 5 min), 15% native PAGE in TBE 1X; pH and salt; conditions: protein: recombinant; tags: none stated (pET3a, untagged); label: 5'-32P; single strand
T3 sequence: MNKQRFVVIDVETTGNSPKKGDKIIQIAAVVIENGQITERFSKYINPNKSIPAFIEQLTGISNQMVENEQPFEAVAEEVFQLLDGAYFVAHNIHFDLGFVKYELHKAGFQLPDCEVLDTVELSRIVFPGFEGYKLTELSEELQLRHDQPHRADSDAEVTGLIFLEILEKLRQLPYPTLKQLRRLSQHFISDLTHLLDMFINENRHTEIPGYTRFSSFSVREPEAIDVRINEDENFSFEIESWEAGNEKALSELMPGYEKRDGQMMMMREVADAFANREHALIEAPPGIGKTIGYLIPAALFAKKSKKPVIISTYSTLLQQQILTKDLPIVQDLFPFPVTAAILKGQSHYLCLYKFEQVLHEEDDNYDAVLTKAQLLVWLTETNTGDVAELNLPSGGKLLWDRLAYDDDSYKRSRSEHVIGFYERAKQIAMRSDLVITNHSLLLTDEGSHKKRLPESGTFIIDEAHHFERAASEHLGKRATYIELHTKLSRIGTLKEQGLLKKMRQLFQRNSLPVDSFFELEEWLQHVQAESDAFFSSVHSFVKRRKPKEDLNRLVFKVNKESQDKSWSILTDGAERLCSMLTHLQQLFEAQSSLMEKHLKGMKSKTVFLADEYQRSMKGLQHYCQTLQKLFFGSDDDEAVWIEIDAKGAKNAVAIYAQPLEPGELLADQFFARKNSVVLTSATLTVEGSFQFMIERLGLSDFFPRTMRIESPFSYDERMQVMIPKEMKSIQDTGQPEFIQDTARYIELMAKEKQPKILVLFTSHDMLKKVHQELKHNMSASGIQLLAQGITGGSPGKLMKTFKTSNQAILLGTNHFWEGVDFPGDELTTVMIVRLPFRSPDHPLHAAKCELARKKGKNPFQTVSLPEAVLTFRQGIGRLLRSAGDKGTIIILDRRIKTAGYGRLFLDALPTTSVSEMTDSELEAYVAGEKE

DinG [2] = target: T3, DinG; assay: EMSA; 2 mM EDTA, no metal; Kapp; text names lssDNA38, Methods and Fig S4 legend give lssDNA45; EMSA, buffer D (composition not in material; 3 mM MgCl2, or 2 mM EDTA instead), 0.5 nM DNA, 37 °C, 10 min (text: 5 min), 15% native PAGE in TBE 1X; pH and salt; conditions: protein: recombinant; tags: none stated (pET3a, untagged); label: 5'-32P; single strand
RecA = target: B1; assay: far-Western, overlay or dot blot; immuno-dot blot: proteins (75-300 ng) spotted on nitrocellulose, blocked with 5% skimmed milk in PBS, incubated 6 h at 4 °C with 200 ng/ml RecA in PBS, 0.5% skimmed milk powder, 0.1% Triton X-100; washed; retained RecA detected with polyclonal anti-RecA antibody; conditions: both partners purified

B1: binds (DinG D10A E12A); binds (DinG K290A).

GTACGTATTCAAGATACCTCGTACTCTGTACTGACTCGGATCCTA (ssDNA, biotin-T at position 44 (second from 3' end)) [3'-Biotin gamma32P-lssDNA45] was tested, and the “apparent K (half saturation)” value (DinG [1]) was < 0.08 nM and the “apparent K (half saturation)” value (DinG [2]) was ~0.7 nM.

B2: RnhC (enzyme, B. subtilis, UniProt P94541 1-313, looked up)
chain: MSHSVIKVSLSAIDQMKMTYSGSLTASVPQGAVFQAKPPGCTITAYQSGKVLFQGKNAAAESARWGTAEPQEKKKTAKKPADPRYAPPADIAGMSVIGSDEVGTGDYFGPMTVVCAYVDKTMLPLMKELGVKDSKDLKDPQIIEIARNLIKTIPYSLLVLKNEKYNSMQEKGMSQGKMKALLHNQAITHLLRKLDGVKPEAILIDQFAEPGVYFNHLKGRDIVKERTYFSTKAEGIHLAVAAASIIARYSFLMEMDKLSRAAGMTLPKGAGPHVDEAAAKLILKKGASALRTFTKLHFANTQKAQRLADKKRS
notes: RnhC (RNase HIII), Bacillus subtilis; rnhC gene cloned into NdeI-linearised pET21b (pCB1242); also called RNase HIII; RnhC-His; source: E. coli BL21(DE3) [pLysS] carrying pCB1242 (rnhC-His), purified (Ni2+ His-Trap)
B2: binds (RecA).
